The assay addresses SARS-CoV1.

“Fc-ACE2 full length construct (Fc fusion)” displayed a Kd of 1.84 nM, a koff of 0.000435 s⁻¹ and an on-rate constant (kon) of 237000 M⁻¹ s⁻¹.
